Here are results for two molecules from US20230059690A1 (published 2023).

Broadly, the Kd is the equilibrium constant for the complex coming apart.

Test [1] deals with T1, cynomolgus monkey PSMA (cynomolgus monkey, UniProt A0A2K5VNZ0 44-750).
T1 chain: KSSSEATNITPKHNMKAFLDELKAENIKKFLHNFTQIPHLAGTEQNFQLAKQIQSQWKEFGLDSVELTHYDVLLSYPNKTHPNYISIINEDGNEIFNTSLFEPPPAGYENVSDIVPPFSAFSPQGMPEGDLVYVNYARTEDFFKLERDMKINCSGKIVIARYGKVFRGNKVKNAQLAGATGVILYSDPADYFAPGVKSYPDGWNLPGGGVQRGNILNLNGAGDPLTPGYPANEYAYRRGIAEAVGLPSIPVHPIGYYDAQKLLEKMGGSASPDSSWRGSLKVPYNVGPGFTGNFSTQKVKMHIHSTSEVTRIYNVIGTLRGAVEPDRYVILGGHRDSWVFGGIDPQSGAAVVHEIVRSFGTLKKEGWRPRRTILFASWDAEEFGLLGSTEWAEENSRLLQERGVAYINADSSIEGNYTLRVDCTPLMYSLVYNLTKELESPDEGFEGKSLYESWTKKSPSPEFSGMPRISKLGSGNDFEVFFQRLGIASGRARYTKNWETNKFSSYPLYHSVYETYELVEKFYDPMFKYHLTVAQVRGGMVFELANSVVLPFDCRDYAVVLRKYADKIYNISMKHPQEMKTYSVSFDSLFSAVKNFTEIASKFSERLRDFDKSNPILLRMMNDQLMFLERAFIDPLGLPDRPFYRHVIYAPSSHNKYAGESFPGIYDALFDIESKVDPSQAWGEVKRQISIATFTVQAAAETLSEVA
In words: SPR.

The target of test [2] is T2, human PSMA (human, UniProt Q04609 44-750). The experiment in a line: SPR. (Surface plasmon resonance follows binding to a sensor surface in real time, without labels.)
The target of test [3] is T1, cynomolgus monkey PSMA. The experiment in a line: ELISA. On the technique in general: An ELISA detects its analyte on a solid surface through an enzyme-linked reagent.
Test [4] concerns the target T2, human PSMA. The experiment in a line: ELISA.
Test [5] has as its target T1, cynomolgus monkey PSMA. In words: FACS; CHO-cyno PSMA cells.
For test [6], the target named is T2, human PSMA. The experiment in a line: FACS; CHO-human PSMA cells. (In flow cytometry, cells or beads pass a laser one at a time.)
Test [7] deals with T2, human PSMA. The experiment in a line: FACS; Rat1(e) hPSMA cells, lot RC6647.
The target of test [8] is T2, human PSMA. In words: FACS; Rat1(e) hPSMA cells, lot RC6589.

T2 sequence (Q04609 44-750): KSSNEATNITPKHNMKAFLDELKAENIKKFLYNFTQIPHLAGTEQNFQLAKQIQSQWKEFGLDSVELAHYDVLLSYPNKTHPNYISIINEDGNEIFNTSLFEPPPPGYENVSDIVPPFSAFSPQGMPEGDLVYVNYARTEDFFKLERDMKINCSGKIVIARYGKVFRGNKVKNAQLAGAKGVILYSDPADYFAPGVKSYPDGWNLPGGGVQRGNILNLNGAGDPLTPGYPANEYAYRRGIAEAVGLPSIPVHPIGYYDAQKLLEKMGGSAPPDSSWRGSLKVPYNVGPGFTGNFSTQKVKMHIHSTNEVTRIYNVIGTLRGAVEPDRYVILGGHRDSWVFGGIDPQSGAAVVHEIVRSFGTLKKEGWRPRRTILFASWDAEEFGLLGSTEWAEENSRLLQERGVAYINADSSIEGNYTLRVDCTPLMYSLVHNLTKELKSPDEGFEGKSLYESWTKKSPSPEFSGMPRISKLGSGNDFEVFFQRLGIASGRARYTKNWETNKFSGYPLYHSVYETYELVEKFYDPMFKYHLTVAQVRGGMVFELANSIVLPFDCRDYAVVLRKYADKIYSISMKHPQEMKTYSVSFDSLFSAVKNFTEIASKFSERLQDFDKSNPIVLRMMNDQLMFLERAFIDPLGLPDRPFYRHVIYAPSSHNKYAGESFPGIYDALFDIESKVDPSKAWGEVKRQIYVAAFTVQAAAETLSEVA

B1: cHv75-2a11.G1(L328C)k (antibody, V domains shown)
VH: QVQLVESGGGVVQPGRSLRLSCAASGFTFSSYDMHWVRQAPGKGLEWVAVIWYDGSNKYYADSLKGRFTISRDNSKNTLYLQMNSLRAEDTAVYYCARVIAARTFYYYGMDVWGQGTTVTVSS
VL: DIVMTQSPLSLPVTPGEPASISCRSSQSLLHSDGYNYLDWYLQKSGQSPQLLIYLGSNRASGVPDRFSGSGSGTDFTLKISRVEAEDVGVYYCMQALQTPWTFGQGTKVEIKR
On to B1, for which the Kd with cynomolgus monkey PSMA [1] was found to be 47000 pM; with human PSMA [2], 59000 pM; with cynomolgus monkey PSMA [3], 104 pM; in the test with human PSMA [4], 138 pM; with cynomolgus monkey PSMA [5] it was 431 pM; in the test with human PSMA [6], 709 pM. Further, in the test with human PSMA [7], binding was characterised by a dissociation constant (Kd) of 761 pM.

B2: cHv75-2a7.G1(C99Y;L328C)k (antibody, V domains shown)
VH: EVQLVESGGGLVQPGGSLRLSCAASGITFSNYWMSWVRQAPGKGLEWVANIKKDGSEKFYVDSVKGRFTISRDNAKNSLYLQINSLRAEDTAMYYCAREIQLYLQHWGQGTLVTVSS
VL: DIQMTQSPSSVSASVGGRVTITCRASQGISNWLAWYQQKPGKAPKLLIYAASSLQSGVPSRFSGSGSGTDFTLTISNLQPEDFASYYCQQANSFPLTFGGGTKVEIKR
On to B2, for which the Kd in the test with cynomolgus monkey PSMA [1] was found to be 36000 pM; in the test with human PSMA [2], 11000 pM; with cynomolgus monkey PSMA [3], 63 pM; in the test with human PSMA [4], 74 pM; in the test with cynomolgus monkey PSMA [5], 166 pM; with human PSMA [6] it was 94 pM. The Kd with human PSMA [8] worked out at 205 pM.
